Patent US20260284216 (published 2026)
Where two headings read alike, the source gives them in different places.

T1: Trop2 (human, UniProt P09758)
T1 chain: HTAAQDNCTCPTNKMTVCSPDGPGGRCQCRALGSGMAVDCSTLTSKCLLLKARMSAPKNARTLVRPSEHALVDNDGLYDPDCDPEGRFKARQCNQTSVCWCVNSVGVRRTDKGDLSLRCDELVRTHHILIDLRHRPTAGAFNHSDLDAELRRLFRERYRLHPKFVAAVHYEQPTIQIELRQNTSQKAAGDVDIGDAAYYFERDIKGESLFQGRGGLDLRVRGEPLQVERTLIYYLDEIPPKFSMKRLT


What was measured:
Experiment in all cases: BLI
[1] = biological target: T1, Trop2
[2] = biological target: TNF-alpha (human)
Sequence of TNF-alpha (human) (chain, as listed by the source): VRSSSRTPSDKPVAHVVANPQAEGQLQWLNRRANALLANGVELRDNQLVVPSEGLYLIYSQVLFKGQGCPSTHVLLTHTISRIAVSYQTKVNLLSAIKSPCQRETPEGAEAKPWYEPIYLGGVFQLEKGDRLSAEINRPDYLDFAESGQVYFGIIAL

[3] = biological target: TNF-alpha (human); remark: listed apart in the source
[4] = biological target: T2, FAP (human, UniProt Q12884)
T2 sequence (Q12884 26-760): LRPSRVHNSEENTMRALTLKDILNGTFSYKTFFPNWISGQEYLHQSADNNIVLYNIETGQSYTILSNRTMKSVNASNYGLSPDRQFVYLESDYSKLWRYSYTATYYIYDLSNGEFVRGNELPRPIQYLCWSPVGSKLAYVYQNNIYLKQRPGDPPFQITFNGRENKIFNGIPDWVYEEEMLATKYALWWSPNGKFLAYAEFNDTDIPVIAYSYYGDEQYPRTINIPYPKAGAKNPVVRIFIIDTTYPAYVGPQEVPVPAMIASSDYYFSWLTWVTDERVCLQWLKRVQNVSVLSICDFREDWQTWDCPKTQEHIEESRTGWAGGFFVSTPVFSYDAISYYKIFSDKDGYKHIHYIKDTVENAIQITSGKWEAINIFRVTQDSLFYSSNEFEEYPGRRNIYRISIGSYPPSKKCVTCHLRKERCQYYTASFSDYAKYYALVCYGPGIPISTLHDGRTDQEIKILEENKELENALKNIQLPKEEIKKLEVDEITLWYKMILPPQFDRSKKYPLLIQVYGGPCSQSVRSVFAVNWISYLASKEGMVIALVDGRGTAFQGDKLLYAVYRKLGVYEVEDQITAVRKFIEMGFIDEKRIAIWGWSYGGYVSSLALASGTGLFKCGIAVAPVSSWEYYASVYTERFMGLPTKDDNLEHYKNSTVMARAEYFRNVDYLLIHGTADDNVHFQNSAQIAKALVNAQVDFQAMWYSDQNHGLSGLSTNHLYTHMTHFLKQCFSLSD

[5] = biological target: TNF-alpha (human); remark: listed apart in the source
[6] = biological target: T2, FAP; remark: listed apart in the source

| Kd [1] [nM] | Kd [2] [nM] | Kd [3] [nM] | Kd [4] [nM] | Kd [5] [nM] | Kd [6] [nM] | Binder |
| --- | --- | --- | --- | --- | --- | --- |
| 101 | 16.5 | – | – | – | – | TN01 (antibody, V domains shown) VH: EVQLVESGGGLVQPGGSLRLSCAASGYVFTDYGMNWVRQAPGKGLEWMGWINTAYGSPDYADSVKGRFTFSLDTSKSTAYLQMNSLRAEDTAVYYCARGYRYYAMDYWGQGTLVTVSS VL: DIQMTQSPSSLSASVGDRVTITCKASQNVGTNVAWYQQKPGKAPKALIYSASFLYSGVPYRFSGSGSGTDFTLTISSLQPEDFATYYCQQVGDYPLTFGQGTKVEIKR |
| – | – | 25.7 | 2.19 | 20.5 | 13.1 | FN15 (antibody, V domains shown) VH: EVQLVESGGGLVQPGGSLRLSCAASGYVFTDYGMNWVRQAPGKGLEWMGWINTDNGTPYYADSVKGRFTFSLDTSKSTAYLQMNSLRAEDTAVYYCARGYRSYAMDYWGQGTLVTVSS VL: DIQMTQSPSSLSASVGDRVTITCKASQYTYNAVAWYQQKPGKAPKALIYSASFLYSGVPYRFSGSGSGTDFTLTISSLQPEDFATYYCQQSYGYLVTFGQGTKVEIKR |
